Data as given in the supplement of paper PMC9170038.

Test system: MS2 coat protein
Assay: apparent KD of MS2 coat protein; designed switch direction (-1 OFF switch, 1 ON switch): -1; higher = weaker reporter binding
Procedure, shortened: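 Transcription of designed RNA switches on Illumina chips was done by stalled E. coli RNA polymerase. SNAP-549-labelled MS2 coat protein was then titrated in doubling steps from 0.7 or 1.5 nM to 3 µM, with steps of 0.8–1.5 h at the lowest and 10–20 min at the highest concentration. The per-design median over clusters of curve-fitted normalised fluorescence is reported as apparent KD.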

[1] = Eterna round: R95, input ligand: microRNA oligo, concentration not stated
[2] = input ligand: microRNA oligo, concentration not stated

Sequence	apparent KD of MS2 coat protein (input ligand: FMN 200 uM) [nM]	apparent KD of MS2 coat protein (input ligand: none) [nM]	apparent KD of MS2 coat protein [1] [nM]	apparent KD of MS2 coat protein [2] [nM]
AGCAUGCGGAAGGAUAUUUGGAGUAGCGACUCGGGAGAAGGUCUGACAUGAGGAUCACCCAUGUGGAGAGACUG [Eternabot (L1) Solution 59] (Eterna round: R97, puzzle: Exclusion 6)	39.2	20.9	–	–
AGCAUGGUAGGAUAUACGGAGCAUUAGGGUUUGUUAUGUGGACAUGAGGAUCACCCAUGUAGAAGGGCCGUGCA [Mat - Exclusion 2 - Mod of JL - D82] (puzzle: Exclusion 2)	–	–	32.6	–
AGCCAAGCAGGAUAUAUCCGGGAUAACAUGAGGAUCACCCAUGUGACCGAUUGAUAUCCUAUAGAAGGGCUUGGGA [Mod of ViennaUCT 23 - Jieux - Exclusion 5] (Eterna round: R97, puzzle: Exclusion 5)	135	43.5	–	–
AGCCAAGCAGGAUAUGCCCGUAAUAACAUGAGGAUCACCCAUGUGACCGAUUUAUGUUCUGCAGAAGGGCUUGGAA [LRO-Excl5-12-mod of Erxesoan mod by Eli Fisker] (Eterna round: R97, puzzle: Exclusion 5)	91.3	24.8	–	–
AGCCACAGAGGAUAUACAUACAUCCAGUAGCGGAUAUCGCUACAUGAGGAUCACCCAUGUAGAAGGCUGUGGCA [Omei Ex2 BD B22] (Eterna round: R97, puzzle: Exclusion 2)	148	611	–	–
AGCCCUGCAGGAUAUGCCCGGGAUAACAUGAGGAUCACCCAUGUGACCGAUUGUUAUCCUGCAGAAGGGCAUGGGA [JL-EX5-4.12 ViennaUCT mod] (Eterna round: R97, puzzle: Exclusion 5)	172	161	–	–
AGCCCUGCAGGAUAUGUCGAGGAUAACAUGAGGAUCACCCAUGUGACCGAUUGUUAGACUGCAGAAGGGCAUGGGA [salish99_ex5_r4_304] (Eterna round: R97, puzzle: Exclusion 5)	278	70.6	–	–
AGCCUACAUGAGGAUCACCCAUGUCAGGAUAUCUCGCGACGUGUCGGGUUCACGUUGCAGAGAAGGGACUCGGG [Estibera] (puzzle: Exclusion 1)	–	–	46.4	–
AGCGAAAAGACAGGAUAUGAGAAUAGAUAGAGCUCAGAAGGGUCACAUGAGGAUCACCCAUGUAAAGUCUUGAGGCUGCGUGGU [Prohibition 11 - Jieux - Exclusion NG 1] (Eterna round: R96, puzzle: Exclusion NG 1)	184	55.6	–	43.4
AGCGAAUAAGUAGGAUAUGAGAAUAGAUAGAGCUCAGAAGGACUACAUGAGGAUCACCCAUGUAAAGUCUUGAGGCUGCGUGGU [Prohibition 14 - Jieux - Exclusion NG 1] (Eterna round: R96, puzzle: Exclusion NG 1)	10.8	13.7	–	11.3
AGCGCCAUCGUGAGAUGGCGUAUUACAUGAGGAUCACCCAUGUAGGAUAUCGAUUGCUUUGCAGUCGAGAAGGGCAUGUCCAAG [JL ENG3 3.80 Mod I] (Eterna round: R96, puzzle: Exclusion NG 3)	45.4	35	–	37.8
AGCUAGUCAGGAUAUUCUAAUAAUUACAUGAGGAUCACCCAUGUGAAGGGACAAGGGUGUGAAGAAGGGACUAGCG [Omei Ex5 A3] (Eterna round: R97, puzzle: Exclusion 5)	358	529	–	–
AGCUAGUGCCGAGGAUAUACAUGAGGAUCACCCAUGUAGGCCAGUCGGUUUCUGACUGGCGAGAUGUAGAAGGCGGCGUUGGCA [JL ENG2 1.51] (Eterna round: R96, puzzle: Exclusion NG 2)	49	15.6	–	12.6
AGCUGAGCAGGAUAUACAUGAGGAUCACCCAUGUAUUCUCGAAGGCGCCGCAUAGCAUGUAGAAGGGUUUAGAU [Eternabot (L1) Solution 20] (Eterna round: R97, puzzle: Exclusion 3)	17	23.2	–	–
AGCUGUGGCCGAGGAUAUCCACAUGAGGAUCACCCAUGUCGAUACCAGCGUAAGCUGGAUAUAAGGGAGAAGGCGGUCUCAGCA [Eli eng2 - 053] (Eterna round: R96, puzzle: Exclusion NG 2)	6.2	10.5	–	6.51
AGCUGUGGCCGAGGAUAUCUAAAUUCUCAAAACGAAAUAUAAUCGAACAUGAGGAUCACCCAUGUAGAGAAGGCGGUCUCAGCA [Eli eng2 - 032] (Eterna round: R96, puzzle: Exclusion NG 2)	–	–	–	34.6
AGCUGUGGCCGAGGAUAUCUAAAUUCUUAAAACGAAAUAUAAUCGAACAUGAGGAUCACCCAUGUAGAGAAGGCGGUCUCAGCA [Eli eng2 - 059] (Eterna round: R96, puzzle: Exclusion NG 2)	–	–	–	13.4
AGCUGUGGCCGAGGAUAUCUACCUUCAAUAACCGAAAUAUAAUCGGACAUGAGGAUCACCCAUGUAGAGAAGGCGGUCUCAGCA [Eli eng2 - 086] (Eterna round: R96, puzzle: Exclusion NG 2)	–	–	–	10.9
